{
  "source": "patent US20230227511A1",
  "about": "“THERAPEUTIC OR […] FOR INFECTIOUS DISEASE” (NIPPON MEDICAL SCHOOL FOUNDATION, priority 2020, published 2023)",
  "key": {"[1]": {"system": "vascular endothelial cells", "details": "Patent Document 1; cited from earlier work"}, "sepsis mouse models": {"system": "sepsis mouse models", "experiment": "Administration of the 50-amino acid peptide (PTX3N50) to sepsis mouse models", "format": "in vivo", "details": "peptide not fused to Fc"}},
  "data": [
    {"substance": "PTX3N50: 50-amino acid peptide on the N-terminal side of PTX3, not fused to Fc (ENSDDYDLMYVNLDNEIDNGLHPTEDPTPCACGQEHSEWDKLFIMLENSQ; UniProt P26022 18-67, looked up, fragment)", "values": [
      {"measurement": "action to suppress histone cytotoxicity against vascular endothelial cells", "setting": "[1]", "result": "has an action to suppress histone cytotoxicity"},
      {"measurement": "survival percentage of the sepsis mouse models", "setting": "sepsis mouse models", "result": "could not improve the survival percentage"}
    ]}
  ]
}
